{"source": "paper PMC2064523", "about": "(The Journal of Cell Biology, 2006)", "molecules": {"B1": {"name": "Vt domain of human vinculin (residues 879–1,066) (domain or fragment, UniProt P18206-2 879-1066, looked up)", "chain": "EEKDEEFPEQKAGEVINQPMMMAARQLHDEARKWSSKGNDIIAAAKRMALLMAEMSRLVRGGSGTKRALIQCAKDIAKASDEVTRLAKEVAKQCTDKRIRTNLLQVCERIPTISTQLKILSTVKATMLGRTNISDEESEQATEMLVHNAQNLMQSVKETVREAEAASIKIRTDAGFTLRWVRKTPWYQ"}}, "key": {"[1]": {"biological_target": "Vh1 domain of human vinculin (residues 1–258) (human) (UniProt P18206)", "experiment": "native gel or EMSA"}, "[2]": {"biological_target": "Vh1 domain of human vinculin (residues 1–258) (human) (UniProt P18206)", "experiment": "SPR"}, "[3]": {"biological_target": "Human full-length vinculin (residues 1–1,066) (human) (UniProt P18206)", "experiment": "SPR"}, "[4]": {"biological_target": "T1, Vh1 domain of human vinculin (residues 1–258) (human, UniProt P18206 1-258)", "T1 sequence (looked up)": "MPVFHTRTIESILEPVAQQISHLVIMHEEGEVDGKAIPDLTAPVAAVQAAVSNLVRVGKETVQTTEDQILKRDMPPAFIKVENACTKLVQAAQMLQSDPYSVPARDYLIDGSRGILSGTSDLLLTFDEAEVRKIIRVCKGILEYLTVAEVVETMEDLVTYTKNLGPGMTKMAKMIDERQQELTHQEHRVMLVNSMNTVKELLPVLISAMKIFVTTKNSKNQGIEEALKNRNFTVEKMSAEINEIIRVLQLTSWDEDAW", "experiment": "SPR"}, "[5]": {"biological_target": "T1, Vh1 domain of human vinculin (residues …)", "experiment": "native gel or EMSA"}, "[6]": {"biological_target": "T1, Vh1 domain of human vinculin (residues …)", "experiment": "crystal structure"}}}
{"molecule": "IpaA-Cterm (C-terminal domain of IpaA, residues 559–633) (from UniProt P18010 559-633) (domain or fragment)", "values": [{"measurement": "stoichiometry N", "setting": "[1]", "value": 1}, {"measurement": "Kd", "setting": "[2]", "value": 0.0062, "unit": "pM"}, {"measurement": "Kd", "setting": "[3]", "value": 35.2, "unit": "pM"}]}
{"molecule": "IpaA-VBS2-Y567I peptide", "values": [{"measurement": "Kd", "setting": "[2]", "value": 15000, "unit": "pM"}]}
{"molecule": "AIYEKAKEVSSALSKVLSKIDDT (peptide, UniProt P18010 565-587, looked up)", "note": "[IpaA-VBS2 peptide (IpaA residues 565–587)]", "values": [{"measurement": "Kd", "setting": "[4]", "value": 6610, "unit": "pM"}]}
{"molecule": "AIYEAAKEVSSALSKVLSKIDDT", "note": "[IpaA-VBS2-K569A peptide]", "values": [{"measurement": "Kd", "setting": "[4]", "value": 530, "unit": "pM"}]}
{"molecule": "B1", "values": [{"measurement": "binding result", "setting": "[5]", "value": "binds"}]}
{"molecule": "NNDITAENNNIYKAAKDVTTSLSKVLKNINKD (peptide, UniProt P18010 602-633, looked up)", "note": "[IpaA residues 602–633 (containing the IpaA-VBS), peptide of the crystal structure]", "values": [{"measurement": "binding result", "setting": "[6]", "value": "binds"}]}
{"molecule": "NIYKAAKDVTTSLSKVLKNINKD (peptide, UniProt P18010 611-633, looked up)", "note": "[IpaA-VBS peptide (IpaA residues 611–633)]", "values": [{"measurement": "Kd", "setting": "[4]", "value": 110, "unit": "pM"}]}
{"molecule": "NIIKAAKDVTTSLSKVLKNINKD", "note": "[IpaA-VBS-Y613I peptide]", "values": [{"measurement": "Kd", "setting": "[4]", "value": 270, "unit": "pM"}]}
